Experiment [1] concerns the target T1, HA-NP (HA-tagged EBOV nucleoprotein) (Zaire ebolavirus (EBOV), UniProt P18272 1-739).
T1 sequence: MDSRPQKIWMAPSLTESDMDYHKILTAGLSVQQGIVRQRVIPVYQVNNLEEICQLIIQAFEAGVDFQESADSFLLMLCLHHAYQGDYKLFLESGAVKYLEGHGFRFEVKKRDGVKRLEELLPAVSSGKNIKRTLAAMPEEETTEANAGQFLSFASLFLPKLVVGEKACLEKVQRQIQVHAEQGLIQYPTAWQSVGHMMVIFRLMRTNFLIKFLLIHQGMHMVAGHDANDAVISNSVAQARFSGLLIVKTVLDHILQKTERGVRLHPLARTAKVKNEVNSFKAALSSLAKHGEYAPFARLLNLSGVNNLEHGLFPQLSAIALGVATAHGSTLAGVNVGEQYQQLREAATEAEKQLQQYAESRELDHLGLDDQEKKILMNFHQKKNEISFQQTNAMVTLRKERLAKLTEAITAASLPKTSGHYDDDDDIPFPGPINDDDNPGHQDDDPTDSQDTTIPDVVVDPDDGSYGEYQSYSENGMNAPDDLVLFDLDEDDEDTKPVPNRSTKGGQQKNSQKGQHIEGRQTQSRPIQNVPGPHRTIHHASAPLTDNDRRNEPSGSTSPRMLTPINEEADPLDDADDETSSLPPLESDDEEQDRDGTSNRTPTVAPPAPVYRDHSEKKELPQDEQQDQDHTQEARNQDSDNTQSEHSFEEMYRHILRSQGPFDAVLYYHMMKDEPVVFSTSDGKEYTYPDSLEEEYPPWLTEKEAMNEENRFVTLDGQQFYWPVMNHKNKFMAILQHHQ
The experiment is described as follows: co-IP. Conditions: partners not purified.

The target in experiment [2] is T1, HA-NP (HA-tagged EBOV nucleoprotein). Nature of the experiment: pull-down. Conditions: one partner purified.

B1: untagged EBOV VP35 wild type (natural protein)
chain: MTTRTKGRGHTAATTQNDRMPGPELSGWISEQLMTGRIPVSDIFCDIENNPGLCYASQMQQTKPNPKTRNSQTQTDPICNHSFEEVVQTLASLATVVQQQTIASESLEQRITSLENGLKPVYDMAKTISSLNRVCAEMVAKYDLLVMTTGRATATAAATEAYWAEHGQPPPGPSLYEESAIRGKIESRDETVPQSVREAFNNLNSTTSLTEENFGKPDISAKDLRNIMYDHLPGFGTAFHQLVQVICKLGKDSNSLDIIHAEFQASLAEGDSPQCALIQITKRVPIFQDAAPPVIHIRSRGDIPRACQKSLRPVPPSPKIDRGWVCVFQLQDGKTLGLKI
On to B1, for which the “fold change of binding, T6-KO against wt A549 cells” value in experiment [1] came out at 6 fold. The “fold change of binding, with OTU-wt co-expression against without OTU” value in experiment [2] was 5 fold.

The values above are taken from article PMC9119628 (PLoS Pathogens, 2022).
